What all share (settings): both partners purified
The target in assay [1] is T1, 5-septin complexes/filaments (a mixture of Cdc11-Cdc12[His6]-Cdc3-Cdc10-Cdc10-Cdc3-Cdc12[His6]-Cdc11 and … (S. cerevisiae, UniProt P32458 1-415; Q07657 1-551; P32468 1-407; P32457 1-520; P25342 1-322).
T1 construct: Cdc11, S. cerevisiae septin, terminal subunit of the Cdc11-capped octamers; Shs1, S. cerevisiae septin, terminal subunit of the Shs1-capped octamers; Cdc12, S. cerevisiae septin; Cdc3, S. cerevisiae septin; Cdc10, S. cerevisiae septin, core subunit; A mixture of two kinds of octamer, each capped by two copies of either Cdc11 or Shs1; polymerised into filaments; also called septin filaments made …
The experiment in a line: co-sedimentation; 1.5 μg eluted GST fusion with 1.5 μg concentrated 4-septin or 5-septin complexes/filaments; 50 mM NaCl, 2 mM MgCl2, 15 mM imidazole, 12% glycerol, 50 mM Tris-HCl pH 7.5; 1 h at room temperature; 100,000 x g for 1 h at 4°C; pellet on Coomassie gel and anti-GST blot.

In assay [2] the target is T2, 4-septin complexes/filaments (Cdc11-Cdc12[His6]-Cdc3-Cdc10-Cdc10-Cdc3-Cdc12[His6]-Cdc11) (S. cerevisiae, UniProt P32458 1-415; P32468 1-407; P32457 1-520; P25342 1-322).
T2 construct: Cdc11, S. cerevisiae septin, terminal subunit of the octamer; Cdc12, S. cerevisiae septin; Cdc3, S. cerevisiae septin; Cdc10, S. cerevisiae septin, core subunit; Octamers polymerised into filaments; copies are those of one octamer; The plasmids are from Versele et al., 2004; also called septin filaments made of Cdc11-capped octamers (four septins); four-septin complexes; source: E. coli …
T2 sequence (P32458 whole entry, chain 1 of 4): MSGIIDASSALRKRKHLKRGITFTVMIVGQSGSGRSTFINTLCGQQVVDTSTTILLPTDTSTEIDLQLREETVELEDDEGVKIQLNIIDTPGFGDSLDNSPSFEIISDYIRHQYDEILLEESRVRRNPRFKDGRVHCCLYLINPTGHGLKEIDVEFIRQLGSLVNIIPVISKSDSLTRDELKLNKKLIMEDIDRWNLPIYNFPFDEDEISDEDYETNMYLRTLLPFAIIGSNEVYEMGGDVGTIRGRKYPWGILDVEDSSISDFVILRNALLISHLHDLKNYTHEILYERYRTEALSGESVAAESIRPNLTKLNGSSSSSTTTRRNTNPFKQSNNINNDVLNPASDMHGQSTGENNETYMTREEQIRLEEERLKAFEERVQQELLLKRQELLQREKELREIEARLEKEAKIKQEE
T2 sequence (P32468 whole entry, chain 2 of 4): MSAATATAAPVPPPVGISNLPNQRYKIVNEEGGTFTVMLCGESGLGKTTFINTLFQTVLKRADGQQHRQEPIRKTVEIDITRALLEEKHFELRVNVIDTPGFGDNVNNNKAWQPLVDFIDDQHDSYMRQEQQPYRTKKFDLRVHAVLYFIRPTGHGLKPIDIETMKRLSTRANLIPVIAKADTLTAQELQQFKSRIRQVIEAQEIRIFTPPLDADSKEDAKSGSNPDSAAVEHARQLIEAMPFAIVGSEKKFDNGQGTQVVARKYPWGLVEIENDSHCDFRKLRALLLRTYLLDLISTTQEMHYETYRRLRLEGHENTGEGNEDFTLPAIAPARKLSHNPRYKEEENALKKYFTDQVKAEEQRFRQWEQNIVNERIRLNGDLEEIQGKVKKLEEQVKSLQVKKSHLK
T2 sequence (P32457 whole entry, chain 3 of 4): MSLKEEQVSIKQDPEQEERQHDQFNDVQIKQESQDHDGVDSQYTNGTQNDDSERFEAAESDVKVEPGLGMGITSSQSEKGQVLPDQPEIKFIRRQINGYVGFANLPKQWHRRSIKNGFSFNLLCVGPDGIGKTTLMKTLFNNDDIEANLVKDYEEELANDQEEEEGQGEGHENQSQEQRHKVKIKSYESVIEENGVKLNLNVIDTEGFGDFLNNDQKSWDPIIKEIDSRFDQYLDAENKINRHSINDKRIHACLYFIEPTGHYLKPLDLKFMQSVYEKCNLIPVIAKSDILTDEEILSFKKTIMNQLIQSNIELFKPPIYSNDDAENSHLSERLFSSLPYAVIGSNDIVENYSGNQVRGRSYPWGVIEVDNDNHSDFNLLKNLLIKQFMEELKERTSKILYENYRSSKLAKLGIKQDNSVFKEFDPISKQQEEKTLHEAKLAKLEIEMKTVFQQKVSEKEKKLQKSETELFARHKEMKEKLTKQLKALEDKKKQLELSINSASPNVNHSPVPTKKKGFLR
T2 sequence (P25342 whole entry, chain 4 of 4): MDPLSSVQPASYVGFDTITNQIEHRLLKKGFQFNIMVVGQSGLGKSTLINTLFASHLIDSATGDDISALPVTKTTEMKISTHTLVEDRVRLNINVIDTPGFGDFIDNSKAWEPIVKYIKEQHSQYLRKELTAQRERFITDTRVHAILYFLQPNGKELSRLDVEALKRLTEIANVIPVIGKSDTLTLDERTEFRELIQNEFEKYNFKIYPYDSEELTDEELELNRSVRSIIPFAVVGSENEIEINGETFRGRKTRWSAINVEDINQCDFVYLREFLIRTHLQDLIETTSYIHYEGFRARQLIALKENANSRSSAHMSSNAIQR
The description is as above.

The target in another assay is T3, His-SUMO-Elm1(421-640) (S. cerevisiae, UniProt P32801 421-640).
T3 construct: Elm1 kinase, S. cerevisiae, residues 421-640 (C-terminal non-kinase domain); Cloned into pET-His6-Sumo-TEV-LIC (Addgene #29659); also called His6-Sumo-Elm1-C; pET-His6-Sumo-Elm1(421-640); source: E. coli Rosetta DE3, purified (His-tag resin, eluted with imidazole); not shown: His6, N-terminal, kept; SUMO, N-terminal, kept
T3 sequence (looked up): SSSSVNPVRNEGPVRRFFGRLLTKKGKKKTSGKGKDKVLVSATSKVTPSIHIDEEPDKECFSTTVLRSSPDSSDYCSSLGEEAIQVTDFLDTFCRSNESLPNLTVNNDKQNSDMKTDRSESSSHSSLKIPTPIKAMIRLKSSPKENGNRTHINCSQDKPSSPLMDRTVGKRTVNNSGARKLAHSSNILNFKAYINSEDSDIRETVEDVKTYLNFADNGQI
The assay can be described thus: pull-down; 3.5 μg GST fusion on glutathione resin with 3.5 μg His6-Sumo-Elm1-C or MBP-Myo1-mTD1; 20 mM MOPS pH 7.0, 1 mM EGTA, 150 mM NaCl, 1 mM DTT, 0.1% NP-40; 1 h; five washes; Coomassie gel and anti-6xHis or anti-MBP blot.

B1: GST-Bni5-Ext-HR2 (GST-Bni5(306-393)) (domain or fragment, S. cerevisiae, UniProt P53890 306-393, looked up)
chain: QKKMANFETRRPTNPFRVISVSSNSNSRNGSRKSSLNKYDSPVSSPITSASELGSIAKLEKRHDYLSMKCIKLQKEIDYLNKMNAQGS
notes: Bni5, S. cerevisiae, residues 306-393 (Ext plus helical region HR2); also called GST-Ext-HR2; pGEX-4T-1-Bni5(306-393); source: E. coli Rosetta DE3, purified (Glutathione Sepharose 4B); kept on the resin for pull-downs, eluted with glutathione for the septin filament assay; not shown: GST, N-terminal, kept
Consider B1, for which the binding result in assay [1] and in assay [2] was “binds” in each case.

B2: GST-Bni5-Ext-HR2-HR3 (GST-Bni5(306-448)) (domain or fragment, S. cerevisiae, UniProt P53890 306-448, looked up)
chain: QKKMANFETRRPTNPFRVISVSSNSNSRNGSRKSSLNKYDSPVSSPITSASELGSIAKLEKRHDYLSMKCIKLQKEIDYLNKMNAQGSLSMEDGKRLHRAVVKLQEYLDKKTKEKYEVGVLLSRHLRKQIDRGENGQFWIGTK
notes: Bni5, S. cerevisiae, residues 306-448 (Ext, HR2 and HR3); also called GST-Ext-HR2-HR3; pGEX-4T-1-Bni5(306-448); source: E. coli Rosetta DE3, purified (Glutathione Sepharose 4B); kept on the resin for pull-downs, eluted with glutathione for the septin filament assay; not shown: GST, N-terminal, kept
In the case of B2, the binding result (with His-SUMO-Elm1(421-640); in assay [1]; in assay [2]) was “binds” throughout.

Values taken from paper PMC12591035, “Bni5 regulates and coordinates septin architecture and myosin-II functions at the cell division site” (The Journal of Cell Biology, 2025).
